Reference: US20090215195A1

Biological target: Human complement component C5 (human) (UniProt P01031)
Test: cell-based or functional assay

For “Recombinant SET1 (SSL7), allele from Staphylococcus aureus clinical isolate GL1”, the SET1 concentration at maximum survival of E. coli in human serum was 2.1 nM and the surviving E. coli cells in human serum, maximum level was 14%.
